Molecular target: T1, tuberous sclerosis complex 1 (TSC1), human, subunit of the purified TSC complex (human), Q92574
T1 chain: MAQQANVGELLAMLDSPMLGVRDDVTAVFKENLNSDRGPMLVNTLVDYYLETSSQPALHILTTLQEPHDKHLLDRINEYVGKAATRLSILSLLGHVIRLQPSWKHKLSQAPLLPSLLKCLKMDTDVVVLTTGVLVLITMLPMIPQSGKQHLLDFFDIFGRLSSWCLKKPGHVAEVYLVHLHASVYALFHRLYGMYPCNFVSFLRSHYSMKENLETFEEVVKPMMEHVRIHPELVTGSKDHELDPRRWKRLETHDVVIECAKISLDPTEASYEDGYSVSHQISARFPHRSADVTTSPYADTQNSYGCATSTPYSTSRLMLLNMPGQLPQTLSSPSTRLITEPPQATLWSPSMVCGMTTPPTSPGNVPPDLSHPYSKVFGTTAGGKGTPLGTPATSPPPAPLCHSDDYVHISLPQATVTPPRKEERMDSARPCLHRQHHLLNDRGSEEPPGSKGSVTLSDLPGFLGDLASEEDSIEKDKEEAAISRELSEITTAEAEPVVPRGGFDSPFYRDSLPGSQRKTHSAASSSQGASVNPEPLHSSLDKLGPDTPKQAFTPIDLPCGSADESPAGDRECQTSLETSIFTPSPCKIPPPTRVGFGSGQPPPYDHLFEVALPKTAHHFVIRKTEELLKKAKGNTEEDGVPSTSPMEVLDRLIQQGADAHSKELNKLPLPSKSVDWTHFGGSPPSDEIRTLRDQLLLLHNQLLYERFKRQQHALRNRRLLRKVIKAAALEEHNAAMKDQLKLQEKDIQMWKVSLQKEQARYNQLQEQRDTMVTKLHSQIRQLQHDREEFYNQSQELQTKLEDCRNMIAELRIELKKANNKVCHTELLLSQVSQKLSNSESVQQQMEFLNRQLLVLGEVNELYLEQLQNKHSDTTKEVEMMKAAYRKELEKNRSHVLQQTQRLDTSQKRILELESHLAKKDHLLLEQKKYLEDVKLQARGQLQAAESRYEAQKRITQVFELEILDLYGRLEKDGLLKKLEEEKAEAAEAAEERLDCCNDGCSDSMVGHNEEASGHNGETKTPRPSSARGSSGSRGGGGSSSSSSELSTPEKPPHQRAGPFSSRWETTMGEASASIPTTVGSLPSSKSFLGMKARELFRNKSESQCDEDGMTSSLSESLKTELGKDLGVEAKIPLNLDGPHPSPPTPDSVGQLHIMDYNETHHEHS
Assay: cryo-EM structure; human TSC complex (TSC1, TSC2, TBC1D7) co-expressed in Expi293F, purified, cross-linked by Grafix (glutaraldehyde); single particle reconstruction, 4.4 Å overall, core 3.6 Å, wings 3.9 and 4.1 Å
Settings: remark: other sources report otherwise

B1: tuberous sclerosis complex 1 (TSC1), human, subunit of the purified TSC complex, Q92574 1-1164 (natural protein)
chain: T1 chain
stoichiometry N: 2

— PMC7804450
